Paper PMC4888843 (Genes & Development, 2016)

B1: mouse Bcl-xLΔC24 (domain or fragment)
chain: MSQSNRELVVDFLSYKLSQKGYSWSQFSDVEENRTEAPEETEAERETPSAINGNPSWHLADSPAVNGATGHSSSLDAREVIPMAAVKQALREAGDEFELRYRRAFSDLTSQLHITPGTAYQSFEQVVNELFRDGVNWGRIVAFFSFGGALCVESVDKEMQVLVSRIASWMATYLNDHLEPWIQENGGWDTFVDLYGNNAAAESRKGQER
B2: loop-deleted human BCL-XL (Δ27–82, ΔC24) (domain or fragment)
chain: MSQSNRELVVDFLSYKLSQKGYSWSQMAAVKQALREAGDEFELRYRRAFSDLTSQLHITPGTAYQSFEQVVNELFRDGVNWGRIVAFFSFGGALCVESVDKEMQVLVSRIAAWMATYLNDHLEPWIQENGGWDTFVELYGNNAAAESRKGQER

Assays:
[1] = target: B2; experiment: crystal structure
[2] = target: B1; experiment: SPR
[3] = target: mouse Bcl-xL Y101FΔC24 (mouse, UniProt Q64373-1 1-209, Y101F)
[4] = target: mouse Bcl-xL Y101F/Q111AΔC24 (mouse, UniProt Q64373-1 1-209, Y101F | Q111A)
[5] = target: human BCL-XLΔC24 (human, UniProt Q07817-1 1-209); experiment: ELISA
[6] = target: BIM BH3 synthetic peptide; experiment: SPR
[7] = target: the molecule itself; experiment: crystal structure

LPLEPNSILGQVGRLLALIGDDINRRYDTEFQNL [mBak Q75L BH3 synthetic peptide]
binding result [1]: binds | fold weaker binding than wild-type Bak BH3 [2]: ~7 fold

LPLEPNSILGQVGRQLALIGDDINRRYDTEFQNL [mBak BH3 synthetic peptide]
fold weaker binding than wild-type Bcl-xL [3]: ~3.5 fold | fold weaker binding than wild-type Bcl-xL [4]: ~3.5 fold

PSSTMGQVGRQLAIIEDDINRRYDSE [phage-displayed human BAK BH3 peptide G82E]
IC50 [5]: > 10 µM

PSSTMGQVGAQLAIIGDDINRRYDSE [phage-displayed human BAK BH3 peptide R76A]
fold reduction in binding against wild-type BAK BH3 (from IC50) [5]: 4 fold

PSSTMGQVGRALAIIGDDINRRYDSE [phage-displayed human BAK BH3 peptide Q77A]
fold reduction in binding against wild-type BAK BH3 (from IC50) [5]: 8 fold

B1
binding result [6]: binds

B2
binding result [7]: binds

LPLQPSSTMGQVGRQLAIIGDDINRRYDSEFQTM [hBAK BH3 synthetic peptide]
binding result [1]: binds
